Measurements published in patent US5780289.

Biological target: E. acervulina merozoite antigen (whole merozoites coated on the plate, or sonicated merozoites)

| Substance | 3H-thymidine incorporation in Dcpm [Dcpm] |
| --- | --- |
| peripheral blood leucocytes of chickens immunised with purified Eam20 (cells without a defined receptor) | 922 |
| peripheral blood leucocytes of chickens immunised with purified Eam45 (cells without a defined receptor) | 716 |
| peripheral blood leucocytes of control chickens (cells without a defined receptor) | 14 |
| peripheral blood leucocytes of chickens immunised with purified Eam100 (cells without a defined receptor) | 1190 |
| peripheral blood leucocytes of chickens immunised with purified Eam200 (cells without a defined receptor) | 692 |
